The results in this text go back to the DeepSol protein solubility set.

The series in a line: soluble on expression in E. coli; label from the status in PepcDB or PDB records.
Turning to “MLKKMGEAVARVARKVNETVESGSDTLDLAECKLVSFPIGIYKVLRNVSGQIHLITLANNELKSLTSKFMTTFSQLRELHLEGNFLHRLPSEVSALQHLKAIDLSRNQFQDFPEQLTALPALETINLEENEIVDVPVEKLAAMPALRSINLRFNPLNAEVRVIAPPLIKFDMLMSPEGARAPLP”, the “soluble on expression in E. coli” value is given as “not soluble”.
Regarding “MSWQQRVDDALTARRVTDTLRRRYVVSQGAGRWLVANGRQYLNFSSNDYLGLSQHPQIIRAWQQAATRFGVGSGGSGHISGYSVAHQALEEELAQWLGYPRALLFISGFAANQAVITALMKKNDRIVADRLSHASLLEAANLSPAQLRRFIHNDTQHLSRLLQSPCVGQQLVVTEGVYSMDGDSAPLAEIQHIARRHHAWLLVDDAHGIGVTGDEGRGTCWLRGVKPELLVVTFGKGFGVSGAAVLCSESVADYLLQFARHLVYSTSMPPAQAQALSASLAVIRSDEGGERREKLAALVQRFRAGVNASRFTLLNAHSAIQPLIVGDNSRALRLAEALRQQGCWATAIRPPTVPVGTARLRLTLTQAHEACDIDRLLEVLHGAGE”, the “soluble on expression in E. coli” value was “not soluble”.
For “MGSDKIHHHHHHMEINKIYCMDCLEGMKQLKDKTVDVVVTSPPYNIGIKYNKYSDNLSREDYLNWIEEVVKEIKRVLKDDGSFFINVGYTAKDPWIAFDVANVIRKHFKLQNTIHWVKSIAIQKEDVGNYPNIIGDIAVGHYKPINSDRFLSIMHEYIFHFTKNGNVKLDKLAIGVPYQDKSNIKRFNRKGDLRDRGNTWFIPYETIQSKEKERPHPATFPPKLPEMCIKLHGVKKTNLVLDPFMGIGSTAIACIRLGIDYIGFEIDEYYCRVAEERIKKELLKTDGKFDNVKNKNIITLDAFI”, the “soluble on expression in E. coli” value was “not soluble”.
Under “MAQTQSPLQWLATTLIRGYQIFISPILGPRCRFNPTCSHYAIEAIKVHGTAKGCWFALKRILKCHPLHPGGSDPVPPKNDRCNKLEHHHHHH” stands “not soluble”; under “MINIDPPSGDCPASGGSSTHNIVSESESRLAFKVKSSNNESYRVRPVYGFVDAKGKAKLDVNRLAGPPKEDKLVIQYARVPADETDPKAPFAAGAQQGEVVVKMVAT”, “not soluble”.
With “GPGSMRNYNNFNRVWKAPRRPFEKERLDREMKLCGQYGLRCKREIWRVNMTLSKMRRTARLLLTLPENHPRRLLEGSAIMRRCHEYGFLDEEKDKLDYVLSLTVPDILERRLQTIVFKAGLAKSVHHARVLIQQRHIAVAKQIVTIPSFIVRVSSERHIAFADASPFGNGRAGRVKRVRAKAAKRHAGGGDDDE”, the “soluble on expression in E. coli” value is reported as “not soluble”.
Under “MKEIILLVFLSRKEQTNRSANIFSSVLKGFEAQTIVYSLSYQKFYSNRKNKHKDETILVTAIYRCRRNPHGMQLKQCSPSVGSGAKTRTSGRLRP” stands “not soluble”; under “MGSDKIHHHHHHMSSAPIIYALSNNSLLIDAAHLDANNVLTIQKKIWALAAHCKNTAEFTDLVAGMNSLTLYLKSSAGLTKWLEALPLLWDELKSSTFTGKHHLIETLYEGEDLAYVARFHNLSIDEVISIHSKAQYHVLFLGFQPGFAYLHGLDTRLHTPRRAEPRIKVPKGAVAIGAAQTGIYPSDTPGGWHIIGHTNTTLFNSSHSQPCLMQPGDTLEFVALKNQGAGA”, “not soluble”.
Under “MFFIMNYHIDWLTIEQDFGFEIPESILAAIFDFGMVGIHLDTGEMQEGIKTGKYRHKGSFCDEVSIKVSGSVIKMEGNPSRWGKVENVLGFTDVDSCVACFNNILFSLNLPLFTRCTEVFYLQGKEGEKVKKFSNGAIIKRLDITTNKSVGKGNERTFLKALSQMRYRNSVGRLHTNHCTVDWLSEKGNANLIYPSCYIKHEEMKLHSYDKIKNKFGQQAKEFQYYQKVFDYCLENGVVRFEQKLKSRYLQRENLCYWGLSDFSKLNEIQDGFINMYKKLSVSEVKLETIAQQLVSQGVVDTLRKANTTAYYAMRWSSGEDLSLLPIATFKRHRAILRKIGIDIANPCDIEKFQAVRVISCEQIFVKPFKAPDFYQYPSNMPQLRLVALEHHHHHH” stands “not soluble”.
In the case of “MAKENYSDPNGKLLNSITTFEVNGEEVKLSGNIIRDYLVSGNAEVTDQEIIMFLQLCKYQKLNPFLNEAYLVKFKNTKGPDKPAQIIVSKEAFMKRAETHEQYDGFEAGIIVERNGEVVEIEGAVSLDKDKLLGGWAKVFRKDRSRPVSVRISEREFNKRQSTWNAMPLTMMRKTAVVNAMREAFPDNLGAMYTEEEQGSLQNNETSVQEEIKQNANTEMLDIPAQQIEVPDFKEIREPEHVEMPPIYDEQPSTPPARPY”, the “soluble on expression in E. coli” value is recorded as “not soluble”.
Under “MGVVNVPSNGREKFKKNWKFCVGTGRLGLALQKEYLDHLKLVQEKIGFRYIRGHGLLSDDVGIYREVEIDGEMKPFYNFTYIDRIVDSYLALNIRPFIEFGFMPKALASGDQTVFYWKGNVTPPKDYNKWRDLIVAVVSHFIERYGIEEVRTWLFEVWNEPNLVNFWKDANKQEYFKLYEVTARAVKSVDPHLQVGGPAICGGSDEWITDFLHFCAERRVPVDFVSRHAYTSKAPHKKTFEYYYQELEPPEDMLEQFKTVRALIRQSPFPHLPLHITEYNTSYSPINPVHDTALNAAYIARILSEGGDYVDSFSYWTFSDVFEEMDVPKALFHGGFGLVALHSIPKPTFHAFTFFNALGDELLYRDGEMIVTRRKDGSIAAVLWNLVMEKGEGLTKEVQLVIPVSESAVFIKRQIVNEQYGNAWRVWKQMGRPRFPSRQAVETLRQVAQPHVMTEQRRATDGVIHLSIVLSKNEVTLIEIEQVRDETSTYVGLDDGEITSYSS” stands “soluble”; under “MTLSKQLKTYITERFKLNYQDTWSCETVDAVAEDVLPEKYIKNSPLEHKILNTFTYYNDELHEISIYPFLCYLDKELIAIGYLDNFDLDFIFLNDTHQIIIDERYLLQKGGELEHHHHHH”, “not soluble”.
Under “MTNPWEVSDAEYQKNFAMFGQLTGGQPFMDAVTARNALMRSNLPTQVLSQIWALSDLDKDGRLDIREYSIAMRLALNCLAGIPIPPQLPPSLLVVPARNAPPTWPGSRHGSVDYSQTLPPAIDRRMSQSYIPSAPVSIAGTPSSRHNSISAGSPLNNDRNVFEGRQLENWAIPHHNKLKYSQLFNALDKERLGSLSSQVGRSALGLSGLPTNVLAHIWFLSDVNKDGKLSVDEYAISQYMIEMFKSGFALPKITPLELVRMCGISSRSANNTPELEPGAEPPQKSPAPKTFEDKRQDNLSKGQAELERRRRVLEEEEQRRRAEVEKKEREEEAKKNRERQEKERQAEVERQAELERQRIIEAQREEEEKKRRLEMERRREEDEKMRKVQMEKAKVKQMQVQMPEQKKWNFYNQKQQENERLAQRQQREKTLQFQLQALDEKVIDVEVDIGKAKEAVAEVTGFIERMRSTRDEKVARIKELQETNQKTAIESQELGHQLLQKQSAHKETTQRKSELEALRRKRDAIRKAIEDAALELSTEKEKSYNQTEILKTNKEKYKTDVYSKLVAKREEYRNSFELLVHAQTHARSKIGEFEAKSAPASAAPAPAPAPAPTTTNGFPANFNDAFGEFDKTDASQRFDADFGATSTADPFAQIAQAPAHSKGAVDQSAFNIHDTYKCRALFAFEARSEDELSFEPGDVIIVFQSHAAEPGWRAGQLREKVGWFPEAFVEAIAAVPTPGGDPPIQNMPPNMTPSSSVDQIGVKAARKAEIAAAMGLTEGGAPPASSAPAAAAVISQCIAQFQWRARNEEDLSFAKGDTIEVLEKQEMKWKGRNPAGEIGWFPKSYVKEVGATTSTTTPIVSPSKASAGAPGAAAGAQYDVVPSDVTLQASETAPQQQLYTVIYDFEAVETTDLALHVGDTILVLEKNDEWWKGRCNGREGIFPANYVEISVQQAGDPTPPTQAPTPAAPPTVLCEAKVVVDFVASAPNQLGIKVGEIVKIREKSAAGWWEGELIRNGKPIAGWFPGEYVKVLEEAASPATRATAVYDYEASQPDELGFKTGDVIIVTDKSEAEWWSGHREQDPSKSGLFPSNYVQQQ” stands “not soluble”.
Under “MGSDKIHHHHHHMTNMKQLCLICLAFICLFFLDSCGNKNTFRVEGSIAGYEDTAQVYLTKIIGSDLSVLDSVNPDRKGRFSFVAQADSTPSFYQIKLRKQHINFAARIGSEINIQVGRNSFSDYVIEDNQGPDNNNIRKIALLKEQADNRLDHLYRSYQENKLDASQYQDTIAKVIDEFKTTLRNDFIFQDPKSPASYFALFQQKDGLLYFNVYDPMDAKAFAAVATAYDTYYPTSSYTKSVRDLSLLGIAAMRRDRVAKDITTRKIEVKDIPETILIDRKGNEQPLSKVVETNDRVLIVFTSYQAEWSPSLVKEQRALYQRHCNNGFQIYEISVDKDLYFWQNATRTLPWITVNDSEGKAALSFNVRSLPTFFLIQDGELKRLQRLESL” stands “not soluble”.
For “MTHLFALSELPLDEIHRLLDEAEAFRSGRIWRPAAPMYVANLFFEPSTRTKCSFEMAERKLGLHVIPFDPERSSVQKGETLYDTVRTLEAIGVDAVVIRHHEDAYFEALRHAVGIPIINAGDGCGHHPTQSLLDLLTIRQEFGAFTGLTVAIIGDIRHSRVARSNAEVLTRLGANVLFSGPAEWKDETNPYGTYVEVDEAIARADVVMLLRIQHERHAETMGLTKEEYHARYGLTLERARRMKSGAIILHPAPVNRGVEIASELVEAKASRIFKQMENGVYVRMAVLKRAMEGRMEHGRMAEKWHVVQ”, the “soluble on expression in E. coli” value is reported as “soluble”.
In the case of “MSLRERVKAHPKPADEQLLTRIRDHSISMLLNFLNSMFDGVDDSFFELANHAHTNNEQNRYFEAMREIRIKRKGIENHFQQELARLFNQPPSQHKTSESLSDNVDVDVLSLVQNDALEESVAINSMISKARANFSGSLLQFQTRVSSVYGETNEENAVNPLDPEHICKAFSDACIGLDIEIKEKLIVYKQFDRYVMGNLVECLEEANKIMIQAGVMPNLKYTAKKSRVTPRSTSDVSARPLEAQSDANGYDGAGDVFSQVQELLSALRNTASNPEQQQGDPNTGAGGRQAPPPGNVQFIADADLLSILSRLQHSVRTENLAEGPVVALDLRTAVQGLLSEESQKSGKATALDQIDEDLINLVSMLFEFILDDYNLSAPIQVLISRLQIPILKVAIRDKSFFSKPSHPARKLLNALAKAGIGWSDASEKKRDKLYEQIHRAVQRILEEFNGESELFEEIYQEFSQYLSREERKAKLVEQRTKEAEIGRVKSHKAHQVVEQILSEKIAAQPLPPVAVELLRGGWSRVMFLAYLKEDTEHRLNQCTKVVDELTWCLQPHAEVEARQRWVKVVPQLLKNLKAGLKEVSYNSAKLEHMLGELKKALTETFKQQSITSAQNDAPKPPAPVAAVIEQKLTPAIKTAVERQSEYEDAALAEYLTKIDEMECGAWIEFSLVNGTRFRCKLSTKIEDSDTYIFVNRLGLKVVEKTRGELAHELRKGRIKALEEGLLFDRAMNAVIGNLRKMSGEGHHHHHH”, the “soluble on expression in E. coli” value is recorded as “soluble”.
Under “MSKLEAILSQEVEAEIQALLQEAEAKAEAVKREAEEKAKALLQARERALEAQYRAALRRAESAGELLVATARTQARGEVLEEVRRRVREALEALPQKPEWPEVVRKLALEALEALPGAKALVANPEDLPHLEAMARERGVELQAEPALRLGVRAVGAEGKTQVENSLLARMDRAWDAMSSKVAQALWG” stands “soluble”; under “MSLTDRLRATYRVKATAASIEARAKGIAVEQSVEMPLSAIDDPAVLDGIVGVVEEITERGEDCFEVRLALSTATIGGDAGQLFNMLFGNTSLQDDTVLLDIDLPDDLLASFGGPNIGAAGLRARVGASADRALTCSALKPQGLPPDRLADLARRMALGGLDFIKDDHGMADQAYAPFASRVGAVAAAVDEVNRQTGGQTRYLPSLSGHLDQLRSQVRTGLDHGIDTFLIAPMIVGPSTFHAVVREFPGAAFFAHPTLAGPSRIAPPAHFGKLFRLLGADAVIFPNSGGRFGYSRDTCQAVAEAALGPWGGLHASLPVPAGGMSLARVPEMIATYGPDVIVLIGGNLLEARDRLTEETAAFVASVAGAASRGCGLAEGHHHHHH”, “soluble”.
